Where two headings read alike, the source gives them in different places.
B1: chrtm5: gp41 residues 118 to 200 with N-terminal HIS-tag, TEV and Enterokinase protease sites, transmembrane region, five cytoplasmic residues (protein)
chain: PCVKLTPLCVSLKCTDLKNDTNTNSSSGRMIMEKGEIKNCSFNISTSIRGKVQKEYAFFYKLDIIPIDNDTTSYKLTSCNTSV
modifications: left off: small tags and cut ends
notes: gp41 residues 118 to 200 with N-terminal HIS-tag, TEV and Enterokinase protease sites, transmembrane region, five cytoplasmic residues

Tests used:
HIVNL-4.3 = details: single round infection assay, TZM-b1 cells
From the text: Two days later, infection cells were lysed and expression of luciferase activity measured.
HIV Neutralization assay.
These C-terminal peptides interact with the N-terminal coiled coil of gp41 thus blocking the refolding of gp41 into the six helical bundle structure ({115}, {116}. {117} and {39}).

mAb 2F5 Fabs = experiment: chrtm5/2F5 Fab complex, Superdex 200 gel filtration and SDS-PAGE; type: binding; details: gel filtration, peak analysed by SDS-PAGE
Method: Chrtm5/2F5 Fab complexes were formed and purified on a Superdex 200 gel filtration column.
Fractions corresponding to the major peak shown in FIG. 10 were separated by SDS-PAGE and stained with Coomassie brilliant blue.
The oligomeric nature of chrtm5 was then further confirmed by purifying chrtm5 in complex with mAb 2F5 Fabs. This complex formation shifts the gel filtration profile to a larger molecular weight and chrtm5/2F5-Fab complexes elute at ˜12.5 ml (FIG. 10).

mAb 4E10 = experiment: Pull down assay of chrtm5 with mAb 4E10; type: binding
Method: (§1) Lane 1—marker; Lane 2—control without antibody; Lane 3—mAb 2F5; and Lane 4—mAb 4E10.
(§2) Pull down assays were then performed to determine whether chrtm5 interacts with the neutralizing antibodies 2F5 and 4E10.

mAb 2F5 = experiment: Pull down assay of chrtm5 with mAb 2F5; type: binding
Method: as §1, §2

rabbits = experiment: Immunization of rabbits with chrtm5 proteoliposomes, Western blot of serum; type: in vivo; details: chrtm5 incorporated into proteoliposomes, two rounds of immunization, preliminary
Method: The oligomeric forms of CHRTM5 are indicated by numbers. The same pattern was obtained with serum dilutions of 1:50, 1:100 and 1:1000.
Liposome preparation. Phospholipids were dissolved in chloroform and dried under a steam of nitrogen. Lipid films were resuspended in reconstitution buffer (25 mM HEPES pH 7.4, 0.1 M KCl). The turbid MLV suspension was passed 21 times through a polycarbonate membrane to give large unilamellar vesicles (LUV) with a diameter of 100 nm. LUVs were solubilized with 20 mM β-OG for one hour at 4° C., and afterwards incubated with protein for an additional hour. The proteoliposome solution was dialyzed with a Liposomat against reconstitution buffer for three hours at room temperature. Pure proteoliposomes were separated from excess protein by gel filtration through a Sephadex G-50 column and were collected by ultracentrifugation at 250000×g for one hour at 4° C. The pellet of pure proteoliposomes was resuspended in reconstitution buffer. The proteoliposomes were used in immunization studies to determine the immunogenicity in rabbits.
chrtm5 can be incorporated into liposomes, which were used for immunization studies.

Molecule | IC50 (HIVNL-4.3; HIVNL-4.3, luciferase activity 2 days later) [µg/mL] | IC50 (HIVNL-4.3; HIVNL-4.3, molar value in brackets) [nM] | complex formation with mAb 2F5 Fabs (mAb 2F5 Fabs) | pull down by antibody 4E10 (mAb 4E10) | pull down by antibody 2F5 (mAb 2F5) | immunogenicity (rabbits)
enfuvirtide | 0.2 | 45 |  |  |  | 
B1 |  |  | the peak contains both chrtm5 and 2F5 Fab fragments | both antibodies pull down chrtm5 | both antibodies pull down chrtm5 | immunogenic in rabbits

Reference: patent US20090011000A1, “Inhibitors of Infection” (priority 2004, published 2009)
